Assay results reported in patent US20170121416A1 (AbbVie / Abbott, published 2017).
Read-outs that look alike come from different tables or passages of the source. One block for each binder: values may come before it.

Key:
[1] = target: T1, human CD324 on cells (MCF7, BR22, NTX tumor cells, 293-hCD324) (human, UniProt P12830 155-882); test: cell-based or functional assay
T1 sequence: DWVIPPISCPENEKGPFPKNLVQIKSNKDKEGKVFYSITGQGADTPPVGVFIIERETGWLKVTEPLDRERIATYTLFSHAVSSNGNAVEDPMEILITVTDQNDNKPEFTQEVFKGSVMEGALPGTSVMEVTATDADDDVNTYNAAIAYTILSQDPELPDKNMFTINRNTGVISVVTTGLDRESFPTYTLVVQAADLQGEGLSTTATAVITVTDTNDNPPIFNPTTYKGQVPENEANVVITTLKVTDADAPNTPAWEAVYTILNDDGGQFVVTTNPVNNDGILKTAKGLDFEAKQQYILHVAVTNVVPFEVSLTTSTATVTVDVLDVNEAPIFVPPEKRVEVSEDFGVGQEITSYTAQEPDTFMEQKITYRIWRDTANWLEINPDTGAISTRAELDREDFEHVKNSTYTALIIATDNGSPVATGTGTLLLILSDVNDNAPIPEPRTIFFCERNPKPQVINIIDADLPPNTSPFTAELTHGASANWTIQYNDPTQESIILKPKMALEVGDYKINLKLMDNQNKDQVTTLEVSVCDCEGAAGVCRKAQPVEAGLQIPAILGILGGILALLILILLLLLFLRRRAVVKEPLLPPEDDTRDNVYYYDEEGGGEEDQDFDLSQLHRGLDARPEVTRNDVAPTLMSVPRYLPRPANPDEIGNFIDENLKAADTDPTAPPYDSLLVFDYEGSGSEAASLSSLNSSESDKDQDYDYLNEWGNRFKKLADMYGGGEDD

[2] = target: T1, human CD324 on cells (MCF7, BR22, NTX …); test: cell-based or functional assay; remark: listed apart in the source
[3] = target: T1, human CD324 on cells (MCF7, BR22, NTX …); test: cell-based or functional assay; remark: listed apart in the source
[4] = target: T1, human CD324 on cells (MCF7, BR22, NTX …); test: cell-based or functional assay; remark: listed apart in the source
[5] = target: T2, mouse CD324 (Sino Biologics) (mouse, UniProt P09803 157-709, limits assumed); test: direct ELISA on plate-coated mouse CD324 (Example 7, paragraph 375; paragraph 370 names ForteBio)
T2 construct: bought recombinant protein coated on the ELISA plate; also called murine CD324; mouse homolog
T2 sequence (looked up): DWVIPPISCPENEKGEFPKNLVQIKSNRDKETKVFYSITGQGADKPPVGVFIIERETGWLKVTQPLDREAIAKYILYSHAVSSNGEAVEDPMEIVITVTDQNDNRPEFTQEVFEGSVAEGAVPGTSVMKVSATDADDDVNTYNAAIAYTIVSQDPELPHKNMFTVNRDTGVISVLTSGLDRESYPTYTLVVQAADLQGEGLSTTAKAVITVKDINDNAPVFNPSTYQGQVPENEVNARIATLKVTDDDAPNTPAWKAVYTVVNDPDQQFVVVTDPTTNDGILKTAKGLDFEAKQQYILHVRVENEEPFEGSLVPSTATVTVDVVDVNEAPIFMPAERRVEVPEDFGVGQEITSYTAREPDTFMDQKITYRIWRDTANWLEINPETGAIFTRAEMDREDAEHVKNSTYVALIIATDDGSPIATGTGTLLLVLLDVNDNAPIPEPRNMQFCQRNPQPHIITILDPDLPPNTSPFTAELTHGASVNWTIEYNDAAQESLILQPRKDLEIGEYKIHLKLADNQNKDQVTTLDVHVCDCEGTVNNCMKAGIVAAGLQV

[6] = target: T1, human CD324 on cells (MCF7, BR22, NTX …); test: cell-based or functional assay; remark: listed apart in the source
[7] = target: T1, human CD324 on cells (MCF7, BR22, NTX …); test: cell-based or functional assay; remark: listed apart in the source
[8] = target: T3, human CD324-His recombinant protein (Sino Biological, Inc.) (human, UniProt P12830 155-709); test: SPR (Biacore), concentration series 25, 12.5 and 6.25 nM, 1:1 Langmuir binding model; murine parent antibody
T3 construct: bought soluble protein; The antigen of the Biacore experiment is only called human CD324 antigen; also called hCD324-His; human CD324 antigen; not shown: His tag
T3 sequence: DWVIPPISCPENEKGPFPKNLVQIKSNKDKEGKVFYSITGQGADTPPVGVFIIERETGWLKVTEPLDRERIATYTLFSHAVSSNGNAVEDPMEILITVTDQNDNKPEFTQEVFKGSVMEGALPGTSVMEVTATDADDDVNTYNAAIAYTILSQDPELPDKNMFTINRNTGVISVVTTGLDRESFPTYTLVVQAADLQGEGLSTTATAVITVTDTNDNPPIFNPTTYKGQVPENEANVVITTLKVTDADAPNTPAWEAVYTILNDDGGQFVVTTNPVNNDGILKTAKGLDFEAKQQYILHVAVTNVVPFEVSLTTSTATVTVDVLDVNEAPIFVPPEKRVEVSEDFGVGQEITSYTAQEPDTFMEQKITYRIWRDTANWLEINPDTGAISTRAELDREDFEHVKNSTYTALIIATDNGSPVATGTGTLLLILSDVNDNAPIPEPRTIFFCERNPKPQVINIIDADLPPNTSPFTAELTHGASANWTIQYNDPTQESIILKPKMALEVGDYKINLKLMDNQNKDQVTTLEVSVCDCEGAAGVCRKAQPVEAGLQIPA

B1: SC10.35 (antibody, V domains shown)
VH: SDVQLQESGPGLVKPSQSLSLTCTVTDYSITSDYAWNWIRQFPGNNLEWMGNIGYSGDTSYNPSLKSRISITRDTSKNQFFLQLNSVTTEDSATYYCARSSLGPFDYWGQGTALTVSS
VL: QIVLTQSPAIMSASPGERVTLTCSASSSVSSSFLYWYQQKSGSSPKLWIYSTSTLASGVPARFSGSGSGTSYSLTISSMEAEDAASYFCHQWSSYPWTFGGGTKLEIK
- Normalized RLU at 10pM (MCF7, Fab-saporin) [1]: 37.2
- Normalized RLU at 100pM (MCF7, Fab-saporin) [1]: 19.4
- EC50 (read off the curve) [2]: ~0.6 pM
- EC50 (MCF7, Fab-saporin killing) [3]: 0.71 pM

B3: SC10.38 (antibody, V domains shown)
VH: QVQLQQSGAELMKTGASVKISCKATGYTFSSYWIEWVKQRPGHGLEWIGEILPGSGKTNYNENFKGKATFTADTSSNTAYMQLSSLTSEDSVVYYCARRGAYYGNFDYWGQGTTLTVSS
VL: DIQMNQSPSSLSASLGDTITITCHVSQNINVWLTWYQQKPGNIPKLLLYKASNLQTGVPSRFSGSGSGTGFTLTISSLQPEDIATYYCQQGQSYPFTFGSGTK
- Normalized RLU at 10pM (MCF7, Fab-saporin) [1]: 102
- Normalized RLU at 100pM (MCF7, Fab-saporin) [1]: 106

B4: SC10.36 (antibody, V domains shown)
VH: QVQLQQSGNELVRPGSAVKISCKASGYAFSSYWMNWVKQRPGQGLEWIGQIYPGDDDSNYNGKFKGKATLTADKSSSSAYMHLSSLTSEDSAVYFCARGFATPTMDYWGQGTSVTVSS
VL: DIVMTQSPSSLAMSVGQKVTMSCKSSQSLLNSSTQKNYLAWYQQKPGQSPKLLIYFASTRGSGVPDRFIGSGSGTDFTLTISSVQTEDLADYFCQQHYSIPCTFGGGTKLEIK
- Normalized RLU at 10pM (MCF7, Fab-saporin) [1]: 40.7
- Normalized RLU at 100pM (MCF7, Fab-saporin) [1]: 21.2

B8: SC10.17 (antibody, V domains shown)
VH: DVQLVESGGGLVQPGGSRKLSCAASGFTFSSYGMHWVRQAPETGLEWVAYITTRSSTIYYAATVKGRFTISRDNARNTLFLQMTSLRSEDTAMYYCTREPLTGYYAMDYWGQGTSVTVSS
VL: DVLMTQTPLSLPVSLGDQASISCRSSQSIVHSDGNTYLEWYLRKPGQSPRLLIYKVSNRFSGVPDRFSGSGSGTDFTLKISRVEAEDLGVYYCFQGSHAPWTFGGGTKLEIK
notes: murine monoclonal antibody from hybridoma; also called murine SC10.17; mAb SC10.17
- EC50 of killing of MCF7 cells, Fab-saporin assay [6]: 1.2 pM
- Percent live cells remaining at 10pM (MCF7, Fab-saporin) [4]: 32%
- EC50 (MCF7, Fab-saporin killing) [7]: 1.22 pM
- EC50 (MCF7, Fab-saporin killing) [3]: 0.13 pM
- binding result [5]: no binding
- Kd [8]: 2 nM

Now from value to binder, other results behind:

- Percent live cells remaining at 10pM (MCF7, Fab-saporin) [4]: 101%
- Normalized RLU at 10pM (MCF7, Fab-saporin) [1]: 101
- Normalized RLU at 100pM (MCF7, Fab-saporin) [1]: 98.8
- binding result [5]: no binding
B2: SC10.75 (antibody, V domains shown)
VH: QVQLKESGPGLVAPSQSLSITCTVTGFSLSRYSVHWIRQPPGKGLEWLGMIWGGGSTDYNSALKSRLSINKDNSKSQVFLKMNSLQTVDTAMYYCARTQFYYGHDGGYAMDYWGQGTSVTVSS
VL: DIVMSQSPSSLAVSVGEKVTMSCKSSQSLLYSNNQKNYLAWYQQKPGQSPKLLIYWASSRESGVPERFTGSGSGTDFTLTISSVKAEDLAVYYCQQYYSSPYTFGGGTKLK
notes: murine mAb; variable regions only

- Normalized RLU at 10pM (MCF7, Fab-saporin) [1]: 91.5
- Normalized RLU at 100pM (MCF7, Fab-saporin) [1]: 90.3
B5: SC10.163 (antibody, V domains shown)
VH: EVQLQQSGPELVKPGDSVKMSCKASGNTVTNYYMDWVKQSHGKSLEWIGYIYANNGGTSYNQKFKGKATLTVDKSSSTAYMEIHSLTSEDSAVYYCAIYYRYEFAYWGQGTLVTVSA
VL: DIVMTQAAFSNPVTLGTSASISCRSSKSLLHSNGITYLYWYLQKPGQSPQLLIYQMSNLASGVPDRFSNSGSGTDFTLRISRVEAEDVGVYYCAQNLELPWTFGGGTKLEIK

- Percent live cells remaining at 10pM (MCF7, Fab-saporin) [4]: 68%
- Normalized RLU at 10pM (MCF7, Fab-saporin) [1]: 68
- Normalized RLU at 100pM (MCF7, Fab-saporin) [1]: 38.1
B6: SC10.178 (antibody, V domains shown)
VH: QILLVQSGPELKKPGETVKISCKANYTFTDYGMHWVKQAPGKGLKWMGWINPKTGVASYADDFKGRFAFSLETSASTAYLQINNLENEDTSIYFCARFFDYWGQGTTLTVSS
VL: DIVLTQSPLSLLVSLGDQASISCRSSQSLVHSNGNTYLHWYLQKPGQSPNLLIFKVSNRFSGVPDRFSGSGSGTDFTLRISRVEAEDLGVYFCSQTTHVWTFGGGTKLEIK
- EC50 (MCF7, Fab-saporin killing) [3]: 3.1 pM

- Normalized RLU at 10pM (MCF7, Fab-saporin) [1]: 64.8
- Normalized RLU at 100pM (MCF7, Fab-saporin) [1]: 34
B7: SC10.168 (antibody, V domains shown)
VH: SDVQLQESGPGLVKPSQSLSVTCTVTDYSLTSGYYWNWIRQFPGNKLEWMAYIHSSGSTHYNPSLKSRISVTRDTSKNQFFLQLNSVTTEDTATYYCARDGAYYSSWFPYWGQGTLVTVSA
VL: DIVMTQSHKLMSASVGDRVSITCKASQDVGTAVAWYQQKPGRSPKLLIYWASNRHTGVPDRFTGSGSGTDFTLTISNVQSEDLADYFCQQFGSYPYTFGGGTKLEIKR
